# Test results reported in publication PMC8752898 (The Journal of Biological Chemistry, 2021).
# Ends that are not written are not given here.
# T1: His6-SUMO-tagged MYC3 (44–238) (Arabidopsis thaliana, UniProt Q9FIP9)
# T1 sequence (Q9FIP9 44-238): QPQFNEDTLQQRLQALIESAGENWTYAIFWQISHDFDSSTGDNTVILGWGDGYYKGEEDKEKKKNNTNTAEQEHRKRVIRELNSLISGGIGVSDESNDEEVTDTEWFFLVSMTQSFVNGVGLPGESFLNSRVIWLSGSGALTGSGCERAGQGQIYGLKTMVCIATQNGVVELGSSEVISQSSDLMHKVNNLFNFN
# T2: His6-SUMO-tagged MYC3 (44-238) (Arabidopsis thaliana, UniProt Q9FIP9 44-238)
# T2 sequence (looked up): T1 sequence (Q9FIP9 44-238)
# Experiments:
# FLAG-MYC3 (full-length) = assay: AlphaScreen assay of interaction with FLAG-MYC3; assay type: binding, Arabidopsis; details: FLAG-MYC3 50 nM, triplicate, in words; for AlphaScreen interaction of biotin-conjugated peptide with MYC3: Biotin-MED25^CMIDM 50, 150 or 250 nM
# [1] = biological target: T1, His6-SUMO-tagged MYC3 (44–238); assay: Fluorescence anisotropy; assay type: binding; details: in words
# [2] = biological target: T2, His6-SUMO-tagged MYC3 (44-238); assay: fluorescence polarisation
Molecule,AlphaScreen interaction of biotin-conjugated peptide with MYC3 (FLAG-MYC3 (full-length)),Kd [2] [nM],also measured
"MED25^CMIDM: CMID-like MYC-interacting domain, amino acids 614 to 655 of MED25 (YVGKADFLVFRAMSQHGFLGQLQDKKLCAVIQLPSQTLLLSV; also: biotin-conjugated)",confirmed,,interaction between MYC3 and CMIDM in FA assay ([1]; Fig. 5B): confirmed
JAZ10^CMID: cryptic MYC-interacting domain of JAZ10 (26–58aa) (FQKFLDRRRSFRDIQGAISKIDPEIIKSLLAST; also: 5-carboxyfluorescein-conjugated) [reference compound],,,binding affinity for MYC compared with Jas motif of JAZ and MED25 [1]: stronger binding affinity for MYC than both the Jas motif of JAZ and MED25
Biotin-MED25^CMIDM: biotin-conjugated CMIDM peptide of MED25 (614–655) (YVGKADFLVFRAMSQHGFLGQLQDKKLCAVIQLPSQTLLLSV; not fully specified (N-terminus); also: biotin-conjugated),directly interact with MYC3,,AlphaScreen interaction of partial peptides with FLAG-MYC3 (FLAG-MYC3 (full-length); peptide 150 nM each (Fig. 4D)): strong interaction
"YVGKADFLVFRAMSQHGFLGQLQDKKLCAVIQLPSQTLLLSV (peptide, UniProt Q7XYY2 614-655, looked up, also: 5-carboxyfluorescein-conjugated) [fluorescein-conjugated MED25^CMIDM (614-655aa)]",,1900,
"FQKFLDRRRSFRDIQGAISKIDPEIIKSLLAST (peptide, UniProt Q93ZM9 26-58, looked up, also: 5-carboxyfluorescein-conjugated) [fluorescein-conjugated JAZ10^CMID (26-58aa)]",,470,
